Measured values from US20110086015.

What was measured:
[1] = test system: OZ107 CF877L zinc finger array (synthetic); test: one_hybrid; settings: bacterial two-hybrid lacZ; SD 0.58; site triplets appear printed in F1-F2-F3 order, so 5'-3' triplet order may be reversed
[2] = test system: OZ108 CF877L zinc finger array (synthetic); test: one_hybrid; settings: bacterial two-hybrid lacZ; SD 0.51
[3] = test system: OZ109 CF877L zinc finger array (synthetic); test: one_hybrid; settings: bacterial two-hybrid lacZ; SD 0.20
[4] = test system: OZ110 CF877L zinc finger array (synthetic); test: one_hybrid; settings: bacterial two-hybrid lacZ; SD 0.15
[5] = test system: OZ111 CF877L zinc finger array (synthetic); test: one_hybrid; settings: bacterial two-hybrid lacZ; SD 1.90
[6] = test system: OZ112 CF877L zinc finger array (synthetic); test: one_hybrid; settings: bacterial two-hybrid lacZ; SD 0.55
[7] = test system: OZ113 CF877L zinc finger array (synthetic); test: one_hybrid; settings: bacterial two-hybrid lacZ; SD 0.20
[8] = test system: OZ114 CF877L zinc finger array (synthetic); test: one_hybrid; settings: bacterial two-hybrid lacZ; SD 0.18
[9] = test system: OZ115 CF877L zinc finger array (synthetic); test: one_hybrid; settings: bacterial two-hybrid lacZ; SD 0.12
[10] = test system: OZ116 CF877L zinc finger array (synthetic); test: one_hybrid; settings: bacterial two-hybrid lacZ; SD 0.38
[11] = test system: OZ117 CF877L zinc finger array (synthetic); test: one_hybrid; settings: bacterial two-hybrid lacZ; SD 0.33
[12] = test system: OZ118 CF877L zinc finger array (synthetic); test: one_hybrid; settings: bacterial two-hybrid lacZ; SD 0.08
[13] = test system: T1, CF877 left ZFN (synthetic); test: cell_activity; settings: as pair with right ZFN, K562 nucleofection; up to ~29% with adenovirus in CFBE41o-; exact clone of pair not stated
T1 sequence: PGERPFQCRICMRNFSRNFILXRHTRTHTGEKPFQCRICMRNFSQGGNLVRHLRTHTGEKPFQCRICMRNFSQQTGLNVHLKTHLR

[14] = test system: OZ119 CF877R zinc finger array (synthetic); test: one_hybrid; settings: bacterial two-hybrid lacZ; SD 0.35; site triplets appear printed in F1-F2-F3 order, so 5'-3' triplet order may be reversed
[15] = test system: OZ120 CF877R zinc finger array (synthetic); test: one_hybrid; settings: bacterial two-hybrid lacZ; SD 0.01
[16] = test system: OZ121 CF877R zinc finger array (synthetic); test: one_hybrid; settings: bacterial two-hybrid lacZ; SD 0.19
[17] = test system: OZ122 CF877R zinc finger array (synthetic); test: one_hybrid; settings: bacterial two-hybrid lacZ; SD 0.59
[18] = test system: OZ123 CF877R zinc finger array (synthetic); test: one_hybrid; settings: bacterial two-hybrid lacZ; SD 0.63
[19] = test system: OZ124 CF877R zinc finger array (synthetic); test: one_hybrid; settings: bacterial two-hybrid lacZ; SD 0.20
[20] = test system: OZ125 CF877R zinc finger array (synthetic); test: one_hybrid; settings: bacterial two-hybrid lacZ; SD 0.85
[21] = test system: OZ126 CF877R zinc finger array (synthetic); test: one_hybrid; settings: bacterial two-hybrid lacZ; SD 0.28
[22] = test system: OZ127 CF877R zinc finger array (synthetic); test: one_hybrid; settings: bacterial two-hybrid lacZ; SD 0.02
[23] = test system: OZ128 CF877R zinc finger array (synthetic); test: one_hybrid; settings: bacterial two-hybrid lacZ; SD 0.07
[24] = test system: OZ129 CF877R zinc finger array (synthetic); test: one_hybrid; settings: bacterial two-hybrid lacZ; SD 0.07
[25] = test system: OZ130 CF877R zinc finger array (synthetic); test: one_hybrid; settings: bacterial two-hybrid lacZ; SD 0.22
[26] = test system: OZ131 CF877R zinc finger array (synthetic); test: one_hybrid; settings: bacterial two-hybrid lacZ; SD 0.12
[27] = test system: OZ132 CF877R zinc finger array (synthetic); test: one_hybrid; settings: bacterial two-hybrid lacZ; SD 0.05
[28] = test system: OZ133 CF877R zinc finger array (synthetic); test: one_hybrid; settings: bacterial two-hybrid lacZ; SD 0.05
[29] = test system: OZ134 CF877R zinc finger array (synthetic); test: one_hybrid; settings: bacterial two-hybrid lacZ; SD 0.19
[30] = test system: OZ135 CF877R zinc finger array (synthetic); test: one_hybrid; settings: bacterial two-hybrid lacZ; SD 0.07
[31] = test system: OZ136 CF877R zinc finger array (synthetic); test: one_hybrid; settings: bacterial two-hybrid lacZ; SD 0.06
[32] = test system: OZ137 CF877R zinc finger array (synthetic); test: one_hybrid; settings: bacterial two-hybrid lacZ; SD 0.04
[33] = test system: OZ138 CF877R zinc finger array (synthetic); test: one_hybrid; settings: bacterial two-hybrid lacZ; SD 0.41
[34] = test system: OZ139 CF877R zinc finger array (synthetic); test: one_hybrid; settings: bacterial two-hybrid lacZ; SD 0.03
[35] = test system: OZ140 CF877R zinc finger array (synthetic); test: one_hybrid; settings: bacterial two-hybrid lacZ; SD 0.48
[36] = test system: OZ141 CF877R zinc finger array (synthetic); test: one_hybrid; settings: bacterial two-hybrid lacZ; SD 0.08
[37] = test system: OZ142 CF877R zinc finger array (synthetic); test: one_hybrid; settings: bacterial two-hybrid lacZ; SD 0.16

GTGGAATTA (double strand) [CF877L half-site]
binding signal (fold activation) [1]: 1.92
binding signal (fold activation) [2]: 2.31
binding signal (fold activation) [3]: 2.83
binding signal (fold activation) [4]: 1.61
binding signal (fold activation) [5]: 2.2
binding signal (fold activation) [6]: 2.52
binding signal (fold activation) [7]: 1.61
binding signal (fold activation) [8]: 2.95
binding signal (fold activation) [9]: 2.71
binding signal (fold activation) [10]: 2.53
binding signal (fold activation) [11]: 3.87
binding signal (fold activation) [12]: 3.55
activity [13]: 1.2 % indels

GAGTGGTTA (double strand) [CF877R half-site]
binding signal (fold activation) [14]: 2.78
binding signal (fold activation) [15]: 2.53
binding signal (fold activation) [16]: 2.91
binding signal (fold activation) [17]: 4.72
binding signal (fold activation) [18]: 5.03
binding signal (fold activation) [19]: 4.41
binding signal (fold activation) [20]: 4
binding signal (fold activation) [21]: 2.57
binding signal (fold activation) [22]: 1.6
binding signal (fold activation) [23]: 2.12
binding signal (fold activation) [24]: 2.55
binding signal (fold activation) [25]: 2.47
binding signal (fold activation) [26]: 2.08
binding signal (fold activation) [27]: 1.28
binding signal (fold activation) [28]: 3.24
binding signal (fold activation) [29]: 3.71
binding signal (fold activation) [30]: 2.25
binding signal (fold activation) [31]: 2.16
binding signal (fold activation) [32]: 2.26
binding signal (fold activation) [33]: 2.52
binding signal (fold activation) [34]: 2.74
binding signal (fold activation) [35]: 2.99
binding signal (fold activation) [36]: 2.87
binding signal (fold activation) [37]: 2.73
